Test results from US20230235012A1 (ALPINE IMMUNE SCIENCES, published 2023).
Several values for one entry are separate records, joined by “and”; a condition that tells them apart may be missing. Equal entries are not always repeated.

Tests used:
[1] = biological target: human CD28, full-length, expressed on transfected cells (human) (UniProt P10747); test: flow cytometry, transfected cells
human PD-L1 (human) = human PD-L1 (human) (UniProt Q9NZQ7); test: flow cytometry, PD-L1-transfected cells
human CD28 [2] = biological target: T1, human CD28 (human, UniProt P10747 19-220); test: flow cytometry, CD28-transfected cells
T1 construct: whole, on cells

[3] = biological target: human PD-L1, full-length, expressed on transfected cells (human) (UniProt Q9NZQ7); test: flow cytometry, transfected cells
human CD28 [4] = biological target: T1, human CD28; test: flow cytometry, transfected cells; protein from CHO
human ICOS [5] = biological target: T2, human ICOS (human, UniProt Q9Y6W8 21-199); test: as above
T2 construct: whole, on cells
T2 sequence (looked up): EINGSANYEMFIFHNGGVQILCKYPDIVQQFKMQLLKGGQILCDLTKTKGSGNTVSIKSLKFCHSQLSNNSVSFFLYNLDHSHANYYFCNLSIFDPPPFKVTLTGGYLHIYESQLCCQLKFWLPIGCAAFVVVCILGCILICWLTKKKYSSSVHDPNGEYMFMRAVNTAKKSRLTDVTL

human CTLA-4 [6] = biological target: T3, human CTLA-4 (human, UniProt P16410 36-223); test: as above
T3 construct: whole, on cells

human CD28 [7] = biological target: T1, human CD28; test: flow cytometry, transfected cells; protein from 293
human ICOS [8] = biological target: T2, human ICOS; test: as above
human CTLA-4 [9] = biological target: T3, human CTLA-4; test: as above
human CD28 [10] = biological target: T1, human CD28; test: flow cytometry, transfected cells; protein from CHO; remark: listed apart in the source
human ICOS [11] = biological target: T2, human ICOS; test: as above; remark: listed apart in the source
human CTLA-4 [12] = biological target: T3, human CTLA-4; test: as above; remark: listed apart in the source
human CTLA-4 [13] = biological target: T3, human CTLA-4; test: flow cytometry, transfected cells
[14] = biological target: human CD28, full length, expressed on cells (human) (UniProt P10747); test: flow cytometry, ECD-Fc on CD28-transfected HEK293 cells
[15] = biological target: T4, human ICOS, full length, expressed on cells (human, UniProt Q9Y6W8 21-199); test: flow cytometry on CHO cells transduced for surface expression of full-length human ICOS; Fc protein 32 pM to 100 nM, PE anti-human IgG, MFI
T4 sequence: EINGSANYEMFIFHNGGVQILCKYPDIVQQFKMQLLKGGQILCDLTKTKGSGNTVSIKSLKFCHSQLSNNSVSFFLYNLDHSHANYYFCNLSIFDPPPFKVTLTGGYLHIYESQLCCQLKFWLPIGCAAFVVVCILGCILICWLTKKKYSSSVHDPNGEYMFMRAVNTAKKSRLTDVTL

[16] = biological target: human CD28, full length, expressed on cells (human, UniProt P10747 19-220); test: flow cytometry of human T cells from blood of treated GVHD mice

T3 sequence (P16410 36-223): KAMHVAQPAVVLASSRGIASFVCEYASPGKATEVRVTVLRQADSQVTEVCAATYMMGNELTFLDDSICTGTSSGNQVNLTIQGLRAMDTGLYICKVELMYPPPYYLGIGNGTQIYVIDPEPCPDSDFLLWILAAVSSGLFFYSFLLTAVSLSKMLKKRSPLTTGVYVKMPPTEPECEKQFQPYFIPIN
Chain of human PD-L1 (human) (Q9NZQ7 19-290): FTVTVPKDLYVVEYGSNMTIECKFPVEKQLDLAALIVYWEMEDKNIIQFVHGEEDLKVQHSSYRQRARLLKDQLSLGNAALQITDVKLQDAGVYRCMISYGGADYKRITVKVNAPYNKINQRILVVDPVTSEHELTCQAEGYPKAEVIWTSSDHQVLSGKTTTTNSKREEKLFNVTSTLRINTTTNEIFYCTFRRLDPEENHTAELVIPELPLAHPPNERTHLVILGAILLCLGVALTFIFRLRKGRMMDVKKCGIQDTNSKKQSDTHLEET
Chain of human PD-L1, full-length, expressed on transfected cells (human) (Q9NZQ7 19-290): as above

stacked Fc fusion: Domain 1 ICOSL WT / Domain 2 NKp30 WT / Fc
MFI [1]: 7920 MFI

stack CD80 WT IgV / ICOSL WT IgV / Fc (Fc fusion)
MFI (human PD-L1 (human)): 1230 MFI

stacked Fc fusion: Domain 1 NKp30 WT / Domain 2 ICOSL WT / Fc
MFI [1]: 6340 MFI

ICOSL F27S/N52H/N57Y/V110N ECD-Fc (Fc fusion)
MFI (human CD28 [2]): 8610 MFI and 4160 MFI
parental ratio of MFI (human CD28 [2]): 1.92 fold vs WT and 0.93 fold vs WT

ICOSL T43A/N52H/N57Y/L74Q/D89G/V110D/F172S ECD-Fc (Fc fusion)
parental ratio of MFI (human CD28 [2]): 0.49 fold vs WT

stacked Fc fusion: Domain 1 CD80 WT / Domain 2 ICOSL WT / Fc
MFI [3]: 2660 MFI

stack ICOSL WT IgV / CD80 WT IgV / Fc (Fc fusion)
MFI (human PD-L1 (human)): 3000 MFI

ICOSL N52H/N57Y/Q100R/V110D/V116A/L161M/F172S/S192G/C198R ECD-Fc (Fc fusion)
parental ratio of MFI (human CD28 [2]): 0.93 fold vs WT

ICOSL Y47H/N52S/V107A/F120S ECD-Fc (Fc fusion)
parental ratio of MFI (human CD28 [2]): 0.31 fold vs WT

B1: ICOSL ECD with N52H/N57Y/Q100R/F172S, (G4S)2-Fc fusion (Fc fusion)
chain: DTQEKEVRAMVGSDVELSCACPEGSRFDLNDVYVYWQTSESKTVVTYHIPQHSSLEYVDSRYRNRALMSPAGMLRGDFSLRLFNVTPQDEQKFHCLVLSRSLGFQEVLSVEVTLHVAANFSVPVVSAPHSPSQDELTFTCTSINGYPRPNVYWINKTDNSLLDQALQNDTVSLNMRGLYDVVSVLRIARTPSVNIGCCIENVLLQQNLTVGSQTGNDIGERDKITENPVSTGEKNAATGGGGSGGGGSEPKSSDKTHTCPPCPAPEAEGAPSVFLFPPKPKDTLMISRTPEVTCVVVDVSHEDPEVKFNWYVDGVEVHNAKTKPREEQYNSTYRVVSVLTVLHQDWLNGKEYKCKVSNKALPAPIEKTISKAKGQPREPQVYTLPPSREEMTKNQVSLTCLVKGFYPSDIAVEWESNGQPENNYKTTPPVLDSDGSFFLYSKLTVDKSRWQQGNVFSCSVMHEALHNHYTQKSLSLSPG
notes: also called ICOSCL ECD with N52H/N57Y/Q100R/F172S
MFI (human CD28 [4]): 110000 MFI
MFI ratio to WT (human CD28 [4]): 63.9 fold
MFI (human ICOS [5]): 136000 MFI
MFI ratio to WT (human ICOS [5]): 1.4 fold
MFI (human CTLA-4 [6]): 323000 MFI
MFI ratio to WT (human CTLA-4 [6]): 42.6 fold
MFI (human CD28 [7]): 12900 MFI
MFI ratio to WT (human CD28 [7]): 3.6 fold
MFI (human ICOS [8]): 16000 MFI
MFI ratio to WT (human ICOS [8]): 1.4 fold
MFI (human CTLA-4 [9]): 8180 MFI
MFI ratio to WT (human CTLA-4 [9]): 0.7 fold
MFI (human CD28 [10]): 14400 MFI
MFI ratio to WT (human CD28 [10]): 4.1 fold
MFI (human ICOS [11]): 12600 MFI
MFI ratio to WT (human ICOS [11]): 1.1 fold
MFI (human CTLA-4 [12]): 8710 MFI
MFI ratio to WT (human CTLA-4 [12]): 0.7 fold

B2: Wildtype ICOSL ECD (control of Tables 30C and 30D) (Fc fusion, not shown: a dimerising Fc or GST)
chain: DTQEKEVRAMVGSDVELSCACPEGSRFDLNDVYVYWQTSESKTVVTYHIPQNSSLENVDSRYRNRALMSPAGMLRGDFSLRLFNVTPQDEQKFHCLVLSQSLGFQEVLSVEVTLHVAANFSVPVVSAPHSPSQDELTFTCTSINGYPRPNVYWINKTDNSLLDQALQNDTVFLNMRGLYDVVSVLRIARTPSVNIGCCIENVLLQQNLTVGSQTGNDIGERDKITENPVSTGEKNAAT
MFI (human CTLA-4 [13]): 7580 MFI
MFI (human CTLA-4 [9]): 12100 MFI

B3: variant ICOSL ECD-Fc F120S/Y152H/N201S (Fc fusion)
chain: DTQEKEVRAMVGSDVELSCACPEGSRFDLNDVYVYWQTSESKTVVTYHIPQNSSLENVDSRYRNRALMSPAGMLRGDFSLRLFNVTPQDEQKFHCLVLSQSLGFQEVLSVEVTLHVAANSSVPVVSAPHSPSQDELTFTCTSINGYPRPNVHWINKTDNSLLDQALQNDTVFLNMRGLYDVVSVLRIARTPSVNIGCCIESVLLQQNLTVGSQTGNDIGERDKITENPVSTGEKNAATAAAEPKSSDKTHTCPPCPAPELLGGPSVFLFPPKPKDTLMISRTPEVTCVVVDVSHEDPEVKFNWYVDGVEVHNAKTKPCEEQYGSTYRCVSVLTVLHQDWLNGKEYKCKVSNKALPAPIEKTISKAKGQPREPQVYTLPPSREEMTKNQVSLTCLVKGFYPSDIAVEWESNGQPENNYKTTPPVLDSDGSFFLYSKLTVDKSRWQQGNVFSCSVMHEALHNHYTQKSLSLSPGK
CD28 MFI parental ratio (ratio to WT ICOSL) [14]: 0.89

B4: variant ICOSL ECD-Fc S54F/V193A (Fc fusion)
chain: DTQEKEVRAMVGSDVELSCACPEGSRFDLNDVYVYWQTSESKTVVTYHIPQNSFLENVDSRYRNRALMSPAGMLRGDFSLRLFNVTPQDEQKFHCLVLSQSLGFQEVLSVEVTLHVAANFSVPVVSAPHSPSQDELTFTCTSINGYPRPNVYWINKTDNSLLDQALQNDTVFLNMRGLYDVVSVLRIARTPSANIGCCIENVLLQQNLTVGSQTGNDIGERDKITENPVSTGEKNAATAAAEPKSSDKTHTCPPCPAPELLGGPSVFLFPPKPKDTLMISRTPEVTCVVVDVSHEDPEVKFNWYVDGVEVHNAKTKPCEEQYGSTYRCVSVLTVLHQDWLNGKEYKCKVSNKALPAPIEKTISKAKGQPREPQVYTLPPSREEMTKNQVSLTCLVKGFYPSDIAVEWESNGQPENNYKTTPPVLDSDGSFFLYSKLTVDKSRWQQGNVFSCSVMHEALHNHYTQKSLSLSPGK
CD28 MFI [14]: 16 MFI
CD28 MFI parental ratio (ratio to WT ICOSL) [14]: 0.87

B5: ICOSL (N52D) (Fc fusion, not shown: a dimerising Fc or GST; small tags and cut ends)
chain: DTQEKEVRAMVGSDVELSCACPEGSRFDLNDVYVYWQTSESKTVVTYHIPQDSSLENVDSRYRNRALMSPAGMLRGDFSLRLFNVTPQDEQKFHCLVLSQSLGFQEVLSVEVTLHVAANFSV
notes: also called ICOSL H79; parental ICOSL only protein
EC50 (read off the curve) [15]: ~0.8 nM

B6: ICOSL (N52H/N57Y/Q100R) (Fc fusion, not shown: a dimerising Fc or GST; small tags and cut ends)
chain: DTQEKEVRAMVGSDVELSCACPEGSRFDLNDVYVYWQTSESKTVVTYHIPQHSSLEYVDSRYRNRALMSPAGMLRGDFSLRLFNVTPQDEQKFHCLVLSRSLGFQEVLSVEVTLHVAANFSV
notes: also called ICOSL H238; parental ICOSL only protein
EC50 (read off the curve) [15]: ~0.5 nM

B7: ICOSL (N52L/N57H/Q100R) (Fc fusion, not shown: a dimerising Fc or GST; small tags and cut ends)
chain: DTQEKEVRAMVGSDVELSCACPEGSRFDLNDVYVYWQTSESKTVVTYHIPQLSSLEHVDSRYRNRALMSPAGMLRGDFSLRLFNVTPQDEQKFHCLVLSRSLGFQEVLSVEVTLHVAANFSV
notes: also called ICOSL H3447; parental ICOSL only protein
EC50 (read off the curve) [15]: ~0.4 nM

B8: variant ICOSL IgV-Fc (N52H/N57Y/Q100R) (Fc fusion)
chain: DTQEKEVRAMVGSDVELSCACPEGSRFDLNDVYVYWQTSESKTVVTYHIPQHSSLEYVDSRYRNRALMSPAGMLRGDFSLRLFNVTPQDEQKFHCLVLSRSLGFQEVLSVEVTLHVAANFSVEPKSSDKTHTCPPCPAPEAEGAPSVFLFPPKPKDTLMISRTPEVTCVVVDVSHEDPEVKFNWYVDGVEVHNAKTKPREEQYNSTYRVVSVLTVLHQDWLNGKEYKCKVSNKALPAPIEKTISKAKGQPREPQVYTLPPSRDELTKNQVSLTCLVKGFYPSDIAVEWESNGQPENNYKTTPPVLDSDGSFFLYSKLTVDKSRWQQGNVFSCSVMHEALHNHYTQKSLSLSPG
binding result [16]: binds
